The values below come from paper PMC5090064, “Coordinated regulation of the ESCRT-III component CHMP4C by the chromosomal passenger complex and centralspindlin during cytokinesis” (Open Biology, 2016).

One test addresses MKLP1 (UniProt Q02241). Nature of the test: GFP-Trap pull-down, Flag western blot. Background: A western blot detects proteins with antibodies after separation by electrophoresis.
Test [1] deals with T1, CPC mini-complex (Survivin full-length, Borealin full-length and INCENP 1–57) (UniProt Q53HL2 1-280; O15392 1-142; Q9NQS7 1-57).
T1 construct: Borealin, full-length, TEV-cleavable His-tagged, pETM vector; Survivin, full-length, 3C-cleavable GFP-tagged, pRSET vector; INCENP residues 1–57 (methods; the results say the first 58 amino acids), untagged, pMCNcs vector; Results call the INCENP piece INCENP 1–58, methods 1–57; also called mini-CPC; copies: + +
T1 sequence (Q53HL2 whole entry, chain 1 of 3, the tested form may be a part): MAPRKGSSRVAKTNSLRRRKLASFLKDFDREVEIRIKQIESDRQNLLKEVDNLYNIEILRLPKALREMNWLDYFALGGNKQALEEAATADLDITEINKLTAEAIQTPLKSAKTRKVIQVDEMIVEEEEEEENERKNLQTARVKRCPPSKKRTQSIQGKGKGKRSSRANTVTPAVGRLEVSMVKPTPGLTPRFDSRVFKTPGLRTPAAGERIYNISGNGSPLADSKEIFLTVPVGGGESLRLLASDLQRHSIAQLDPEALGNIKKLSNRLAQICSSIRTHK
T1 sequence (O15392 whole entry, chain 2 of 3, the tested form may be a part): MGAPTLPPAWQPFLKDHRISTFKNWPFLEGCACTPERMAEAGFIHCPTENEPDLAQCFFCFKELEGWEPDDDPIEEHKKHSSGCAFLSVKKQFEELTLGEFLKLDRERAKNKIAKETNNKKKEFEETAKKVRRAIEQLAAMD
T1 sequence (Q9NQS7 1-57, chain 3 of 3): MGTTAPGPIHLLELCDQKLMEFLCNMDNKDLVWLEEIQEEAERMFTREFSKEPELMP
Put plainly: atomic force microscopy; purified proteins on mica surfaces without lipid bilayers, imaged under fluid at room temperature. The following applies: both partners purified.

For the molecule “CHMP4C (from UniProt Q96CF2) StripleA (S210A, S214A, S215A)”, the “binding against the reference” value is “stronger” with MKLP1 (reference: S210A, sites S214,S215) and “stronger” with MKLP1 (reference: wild type, sites S210,S214,S215).

B1: CHMP4C (purified recombinant, full-length) (natural protein, human, UniProt Q96CF2 1-233, looked up)
chain: MSKLGKFFKGGGSSKSRAAPSPQEALVRLRETEEMLGKKQEYLENRIQREIALAKKHGTQNKRAALQALKRKKRFEKQLTQIDGTLSTIEFQREALENSHTNTEVLRNMGFAAKAMKSVHENMDLNKIDDLMQEITEQQDIAQEISEAFSQRVGFGDDFDEDELMAELEELEQEELNKKMTNIRLPNVPSSSLPAQPNRKPGMSSTARRSRAASSQRAEEEDDDIKQLAAWAT
notes: CHMP4C, human, full-length ORF cloned into pET-His6-msfGFP as a TEV-cleavable His-tagged protein; also called His6-GFP::CHMP4C; purified CHMP4C; source: E. coli BL21 Gold, purified (Ni-NTA, TEV cleavage, Superdex 200); not shown: His6, N-terminal, cleaved
In the case of B1, in test [1], the binding result is recorded as “binds”.
